Assays:
[1] = biological target: T1, recombinant Smurf1 protein (UniProt Q9HCE7 1-757); assay: SPR
T1 chain: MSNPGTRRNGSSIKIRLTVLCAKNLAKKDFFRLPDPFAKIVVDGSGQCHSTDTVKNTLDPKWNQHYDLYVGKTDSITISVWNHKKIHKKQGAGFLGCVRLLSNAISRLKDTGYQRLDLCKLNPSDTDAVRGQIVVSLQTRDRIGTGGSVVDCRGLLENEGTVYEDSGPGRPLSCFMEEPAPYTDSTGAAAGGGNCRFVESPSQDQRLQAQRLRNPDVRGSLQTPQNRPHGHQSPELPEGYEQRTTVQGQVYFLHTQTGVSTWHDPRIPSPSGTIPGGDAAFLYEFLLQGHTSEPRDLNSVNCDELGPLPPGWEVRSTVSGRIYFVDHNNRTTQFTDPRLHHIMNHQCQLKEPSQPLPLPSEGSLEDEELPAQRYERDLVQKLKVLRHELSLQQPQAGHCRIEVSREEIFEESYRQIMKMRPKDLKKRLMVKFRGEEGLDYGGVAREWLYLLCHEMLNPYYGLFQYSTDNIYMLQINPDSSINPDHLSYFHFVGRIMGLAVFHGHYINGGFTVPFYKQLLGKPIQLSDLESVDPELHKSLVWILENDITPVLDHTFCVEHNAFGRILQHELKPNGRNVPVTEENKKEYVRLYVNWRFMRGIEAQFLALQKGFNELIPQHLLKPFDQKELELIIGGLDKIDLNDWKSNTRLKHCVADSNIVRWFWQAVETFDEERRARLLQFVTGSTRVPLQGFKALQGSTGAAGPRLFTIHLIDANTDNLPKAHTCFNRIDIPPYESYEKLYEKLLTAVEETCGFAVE

[2] = biological target: T2, recombinant Smurf1 protein (UniProt Q9HCE7 1-757); assay: SPR; recombinant Smurf1 immobilised on a CM5 sensor chip by amine coupling; TRIB3 protein applied at 31 nM to 8 uM; Biacore T200, kinetics model; conditions: both partners purified
T2 construct: Smad ubiquitination regulatory factor 1 (Smurf1), recombinant protein immobilised on a CM5 chip for SPR; also called Smad ubiquitination regulatory factor 1; E3 ubiquitin-protein ligase Smurf1

koff [1]: 0.0015 s⁻¹ | Kd [2]: 1.03 µM
B1: recombinant TRIB3 protein (natural protein, UniProt Q96RU7 1-358, looked up)
chain: MRATPLAAPAGSLSRKKRLELDDNLDTERPVQKRARSGPQPRLPPCLLPLSPPTAPDRATAVATASRLGPYVLLEPEEGGRAYQALHCPTGTEYTCKVYPVQEALAVLEPYARLPPHKHVARPTEVLAGTQLLYAFFTRTHGDMHSLVRSRHRIPEPEAAVLFRQMATALAHCHQHGLVLRDLKLCRFVFADRERKKLVLENLEDSCVLTGPDDSLWDKHACPAYVGPEILSSRASYSGKAADVWSLGVALFTMLAGHYPFQDSEPVLLFGKIRRGAYALPAGLSAPARCLVRCLLRREPAERLTATGILLHPWLRQDPMPLAPTRSHLWEAAQVVPDGLGLDEAREEEGDREVVLYG
notes: Tribbles homolog 3 (TRIB3), recombinant protein flowed over the chip in SPR; also called tribbles homolog 3

Source: paper PMC11957692, “TRIB3 mediates vascular calcification by facilitating self-ubiquitination and dissociation of Smurf1 in chronic kidney disease” (The Journal of Clinical Investigation, 2025)
